Molecular target: the molecule itself
Experiment: static small angle X-ray scattering (SAXS); conventional static SAXS, flow cell, no laser (ground state); difference scattering between wild type and monomeric mutant; 25 mM Tris pH 7.5, 100 mM NaCl, 2 mM DTT

B1: Arabidopsis thaliana UV-B resistance 8 (AtUVR8), wild type, residues 12-381 (domain or fragment, UniProt Q9FN03 12-381, looked up)
chain: APPRKVLIISAGASHSVALLSGDIVCSWGRGEDGQLGHGDAEDRPSPTQLSALDGHQIVSVTCGADHTVAYSQSGMEVYSWGWGDFGRLGHGNSSDLFTPLPIKALHGIRIKQIACGDSHCLAVTMEGEVQSWGRNQNGQLGLGDTEDSLVPQKIQAFEGIRIKMVAAGAEHTAAVTEDGDLYGWGWGRYGNLGLGDRTDRLVPERVTSTGGEKMSMVACGWRHTISVSYSGALYTYGWSKYGQLGHGDLEDHLIPHKLEALSNSFISQISGGWRHTMALTSDGKLYGWGWNKFGQVGVGNNLDQCSPVQVRFPDDQKVVQVSCGWRHTLAVTERNNVFAWGRGTNGQLGIGESVDRNFPKIIEALSVDG
notes: UV-B resistance 8 (UVR8), Arabidopsis thaliana, residues 12-381; Homodimer in the dark (ground) state; also called 2M-T-AtUVR8-His; source: E. coli BL21(DE3) GOLD, purified (IMAC, TEV cleavage, Q-Sepharose, MBPTrap flow-through); not shown: MBP-His-tag, N-terminal, cleaved
  binding result: binds
